The target in data set [1] is T1, ScPif1p (237-780) (Saccharomyces cerevisiae, UniProt P07271 237-780).
T1 sequence: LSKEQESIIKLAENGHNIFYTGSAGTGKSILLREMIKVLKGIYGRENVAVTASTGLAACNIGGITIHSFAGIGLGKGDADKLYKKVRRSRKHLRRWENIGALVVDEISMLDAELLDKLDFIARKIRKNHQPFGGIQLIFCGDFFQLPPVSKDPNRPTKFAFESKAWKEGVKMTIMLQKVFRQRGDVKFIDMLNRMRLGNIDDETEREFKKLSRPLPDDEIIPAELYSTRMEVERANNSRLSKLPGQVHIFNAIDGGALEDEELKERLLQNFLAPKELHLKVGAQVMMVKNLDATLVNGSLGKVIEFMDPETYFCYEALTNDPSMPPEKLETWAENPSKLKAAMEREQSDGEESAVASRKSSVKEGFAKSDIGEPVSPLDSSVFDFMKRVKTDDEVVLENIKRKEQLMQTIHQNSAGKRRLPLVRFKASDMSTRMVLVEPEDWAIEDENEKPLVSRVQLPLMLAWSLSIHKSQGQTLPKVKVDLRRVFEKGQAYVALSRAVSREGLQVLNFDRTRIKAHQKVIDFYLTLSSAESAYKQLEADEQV
Kind of data set: SEC-SAXS, gel filtration. A general note: SEC sorts molecules by how far they enter the pores of the column.

In data set [2] the target is T1, ScPif1p (237-780). As to the kind of experiment: fluorescence anisotropy. In general terms: Fluorescence polarisation rises when a labelled molecule tumbles more slowly, as on binding a larger partner.
Data set [3] concerns the target T1, ScPif1p (237-780). Kind of data set: crystal structure.
Data set [4] addresses T1, ScPif1p (237-780). As to the kind of experiment: crystal structure. This is another data set of the same source.
For data set [5], the target named is T1, ScPif1p (237-780). As to the kind of experiment: SEC-SAXS.
The target of another data set is T2, ScPif1p H303G/H705G (Saccharomyces cerevisiae, UniProt P07271 237-780, H303G;H705G).
T2 sequence: T1 sequence with H67G, H469G
Kind of data set: fluorescence anisotropy.

For data set [6], the target named is T1, ScPif1p (237-780). Kind of data set: fluorescence anisotropy. The source holds these as a separate data set.
Data set [7] deals with T1, ScPif1p (237-780). As to the kind of experiment: SEC-SAXS, gel filtration. This is another data set of the same source.

Substitutions are numbered along the chain they refer to. Where two headings read alike, the source gives them in different places.

The values that follow come from PMC5814829.

Turning to TTTTTTTTGGGTGGGTGGGTGGGT (structured_DNA) [8T3G4], in the data set with ScPif1p (237-780) [1], the binding result is given as “binds”.

The molecule TTTTTTTTTTTT (ssDNA) [Poly(T12)] registered a Kd with ScPif1p (237-780) [2] of 15.1 nM.

As for GGGTTTTT (ssDNA) [Poly(G3T5)], the binding result with ScPif1p (237-780) [3] is listed as “binds”.

Turning to TTTTTTTT (ssDNA) [Poly(T8)], the binding result with ScPif1p (237-780) [4] is “binds”.

Regarding GTGTGGTGTGG (ssDNA) [GR11], in the data set with ScPif1p (237-780) [5], the binding result is “binds”.

Regarding CUCUGCUCGACG (ssRNA) [F-RNA12 (text: Poly(U12))], the Kd with ScPif1p H303G/H705G was 70.5 nM; with ScPif1p (237-780) [6] it was 163 nM.

On to AGGGTTAGGGTTAGGGTTAGGG (structured_DNA) [3G4], for which the binding result in the data set with ScPif1p (237-780) [7] is on record as “binds”.

Turning to TTTGGGTT (ssDNA) [Poly(T3G3T2)], in the data set with ScPif1p (237-780) [3], the binding result was “binds”.

In general, Kd refers to the concentration at which binding is half-saturated. High values mean lower affinity, low ones higher affinity.
